Here are results for 17 molecules from patent US20260258115A1 (MAPP BIOPHARMACEUTICAL, published 2026).

In experiment [1] the target is RSV fusion glycoprotein (RSV F) on RSV-A2 virus (respiratory syncytial virus, UniProt P03420 26-574). Nature of the experiment: cell-based or functional assay.
Experiment [2] has as its target RSV prefusion F (preF), DS-Cav1 (respiratory syncytial virus, UniProt P03420 26-513). Put plainly: BLI, IgG on sensor, 100 nM antigen.
The target in experiment [3] is RSV postfusion F (postF), F deltaFP (respiratory syncytial virus, UniProt P03420 26-513). Nature of the experiment: BLI, IgG on sensor, 100 nM antigen.

Numbering of substitutions follows the chain as printed. A value given as a limit tells only on which side of the number the result lay.

B1: ADI-41381 (antibody, V domains shown)
VH: QVQLQESGPGLVKPSQTLSLTCTVSGDSISGGEHYWSWIRQPPGKGLEWIGSIYYSGTTYYNPSLKSRLTVSVDTFKNQFSLMLSYVTAADTAVYYCARDASPAYHDYIWGSCRYFDKWGQGTLVTVSS
VL: EIVLTQSPGTLSLSPGERATLSCRASQSVSSNYLAWYQQKPGQAPRILIHGASSRATGIPDRFSGSGSGTDFTLTVSRLEPEDFAVYYCQQYGSTPYTFGQGTKVEIK
notes: IgG1; also called Ab 678
In general, Kd refers to the equilibrium constant for the complex coming apart. Consider B1, for which, in experiment [1], the “Neutralization IC50 (RSV subtype A)” value was over 25 µg/mL. In addition, the dissociation constant Kd is 2.6 nM in experiment [2] and 1.34 nM in experiment [3].

B2: ADI-41371 (antibody, V domains shown)
VH: QVQLQESGPRLVKPSQTLSLTCTVSGGSITTGEHYWSWIRQSPGRGLEWIGYISYSGSTYYNPSLKSRVTISVDTSKTRISLNLRSVTAADSAVYYCARDQEDSDYIWGSSRVFDIWGQGTMVTVSS
VL: ETTLTQSPGTLSLSPGERATLSCRASQNVGNNYLAWYQQKPGQAPRVLIQDASTRATGIPDRFSGSGSGTDFTLTISRLEPEDFAVYHCQQYGSAPWTFGQGTKVEIK
notes: IgG1; also called Ab 668
Take B2: in experiment [1], the “Neutralization IC50 (RSV subtype A)” value is over 25 µg/mL. For the same molecule, the Kd in experiment [2] amounted to 2.96 nM; in experiment [3], 0.543 nM.

B3: ADI-41368 (antibody, V domains shown)
VH: EVQLVESGGGVVQPGRSLRLSCAASGFIFRNYGMHWVRQAPGKGLEWVAGTSFEGRNKDYGHSVKGRFTISRDNSKDTLYLQMNSLRPEDTAVYSCAKGSSLQWSHLDWYFDLWGRGTLVTVSS
VL: DIVMTQSPSTLSASVGDRVTITCRASQSFSSWLAWYQQKPGKAPNLLIYDASTLESGVPSRFSGSGSGTEFTLTISSLQPDDFATYYCQQERTFGQGTKVEIK
notes: IgG1; also called Ab 665
With B3, in experiment [1], the “Neutralization IC50 (RSV subtype A)” value is over 25 µg/mL. Moreover, the Kd was determined as 3.08 nM in experiment [2] and 0.878 nM in experiment [3].

B4: ADI-41376 (antibody, V domains shown)
VH: QVQLQESGGGVVQPGRSLRLSCAASGFTFSSYAMHWVRQAPGKGLEWVAVISFDGTANKYYADSVKGRFAISRDNSKNTLYLQMNSLRAEDTAVYYCAKDDAIYSGGWVGDAFDLWGQGTMVTVSS
VL: EIVLTQSPATLSVSPGERATLSCRASQGVNSNLAWYQQKPGQAPRLLMYGASTRATGIPARFSGSGSETEFTLTISSLQSEDFAVYYCQQYNNWPRTFGQGTKVDIK
notes: IgG1; also called Ab 673
Consider B4, for which the “Neutralization IC50 (RSV subtype A)” value in experiment [1] was over 25 µg/mL. In addition, the Kd was 4.15 nM in experiment [2] and 0.705 nM in experiment [3].

B5: ADI-41374 (antibody, V domains shown)
VH: QVQLVQSGAEVKKPGSSVKVSCKASGGTFSNHAIDWVRQAPGQGLEWMGRIIPMVGLATYTRKFQGRVTISVDKSTSTAYMELSSLISDDTAVYYCARRTPEMAWGYWGQGTTVTVSS
VL: DIVMTQTPSSLSASVGDRVTITCQASQDIRYYVNWYQQKPGKAPKLLIYDASTLETGVPSRFSGRGSGTDFTLIISSLQPEDIATYYCQQYGDLPTFGQGTRLEIK
notes: IgG1; also called Ab 671
With B5, in experiment [1], the “Neutralization IC50 (RSV subtype A)” value is over 25 µg/mL. Moreover, the Kd came to 1.39 nM in experiment [2] and 0.369 nM in experiment [3].

B6: ADI-41367 (antibody, V domains shown)
VH: QVQLVQSGAAVKRPGASVKVSCKASGYTFSTNALHWVRQAPGQSLEWMGWINTDNGIPKYSERFHGRVTFTRDTSASTVYMDLSGLRSGDTAVYYCARDGSSGHWLGLSVLDNWGQGTLVTVSS
VL: QSALIQPASVSGSPGQSITISCTGTSDDVGAYNYVSWYQQYPNKAPKLVIYEVSHRPSGVSNRFSGSKSGNTASLTISGLQAEDEADYYCSSYTRSATPYVFGTGTKLTVL
notes: IgG1
For the molecule B6, in experiment [1], the “Neutralization IC50 (RSV subtype A)” value was over 25 µg/mL. For the same molecule, the Kd in experiment [2] worked out at 17.6 nM; in experiment [3], 4.72 nM.

B7: ADI-41355 (antibody, V domains shown)
VH: EVQLVESGGGLVKPGGSLRLSCTASGFTFSDYYMNWIRQAPGKGLEWVSYISGDGNTIYYTDSVKGRFTISRDNAKNSLFLQMNSLRGEDSAVYYCAGPVRGYTYGIFDYWGQGALVTVSS
VL: YYVLTQPPSVSVAPGQAARITCGGNNIGSRSVNWYQQKPGQAPVVVIYGDSVRPSGIPERFSGSNSGNTATLTFSRVEAGDEADYYCQVWETNSDHPVVFGGGTKVTVL
notes: IgG1
Consider B7, for which the “Neutralization IC50 (RSV subtype A)” value in experiment [1] is over 25 µg/mL. Besides, the equilibrium dissociation constant (Kd) in experiment [2] was determined as 3.84 nM; in experiment [3], 1.18 nM.

B8: ADI-41372 (antibody, V domains shown)
VH: QVQLVQSGAEVKKPGSSVKVSCKASGGISSSYAISWVRQAPGQGLEWMGGIIPIFGTTNYAQKFQGRVTITADKSTSTVYMELSSLRSEDSAVYFCARAYCSGGTCYGGADYWGQGTLVTVSS
VL: SYELTQPPSVSVSPGQTARITCSGDVLPKQYAYWYQQKLGQAPLLVMYKDTERPSGIPERFSGSSSVTAVTLTISGVQAEDEADYYCQSADSTQELFGGGTKLTVL
notes: IgG1; also called Ab 669
As for B8, in experiment [1], the “Neutralization IC50 (RSV subtype A)” value is over 25 µg/mL. Besides, the Kd in experiment [2] came to 2.48 nM; in experiment [3], 0.425 nM.

B9: ADI-41365 (antibody, V domains shown)
VH: EVQLVESGGGLVKPGGSLRLSCATSGFTFSDYYMTWIRQAPGKGLEWVSYISSSGGYTNYADSVRGRFTISRDNAKRSLYLQMNSLRAEDTAVYYCARVEFSSGDVPSLFDSWGQGTLVTVSS
VL: QSVLTQPPSVSGAPGQRVTISCTGSSSNLGAGYHVHWYQQFPGTAPKPLIYGNTNRPSGVPDRFSGSKSGTSASLAITGVQAEDEADYYCQSYDYSLSGWVFGGGTKLTVL
notes: IgG1
Consider B9, for which the “Neutralization IC50 (RSV subtype A)” value in experiment [1] is over 25 µg/mL. The Kd in experiment [2] turned out to be 2.87 nM; in experiment [3] it was 2.22 nM.

B10: ADI-41373 (antibody, V domains shown)
VH: QVTLKESGGGLVKPGGSLRLSCAASGFTFSDYFMTWIRQAPGKGLEWVSYISSNSGYTKYAEDVKGRFSISRDNAKKTLFLQLNSLSAEDTAVYYCARVEFSSGDVPSLFDLWGQGTLVTVSS
VL: B9 VL with L29I, F41L, P48V, Y51H, T54N, K68R, V80L, Y95F
notes: IgG1; also called Ab 670
With B10, in experiment [1], the “Neutralization IC50 (RSV subtype A)” value was over 25 µg/mL. Moreover, the figures for the Kd in experiment [2] and in experiment [3] were 3.71 nM and 1.18 nM, respectively.

B11: ADI-41375 (antibody, V domains shown)
VH: QVQLVQSGGGVVQPGRSLRLSCATSGFTFSDYAIHWVRQAPGKGLEWVAVISYDGSHKYYGDSVKGRFTISRDNSKNTLYLQMNSLRPEDTAVYYCARSRSGSYYSSAIDNWGQGTLVTVSS
VL: DIQMTQSPSSLSASVGDRVTIACRASQGISSALAWYRQRPGKAPELLIYDASTLESGVPSRFSGYGAGTDFTLTISSLQPEDFATYYCQQFNSYPSITFGQGTKVEIK
notes: IgG1
B11: the “Neutralization IC50 (RSV subtype A)” value in experiment [1] was over 25 µg/mL. In addition, the Kd amounted to 2.96 nM in experiment [2] and 1.02 nM in experiment [3].

B12: ADI-41378 (antibody, V domains shown)
VH: EVQLVESGPGLVKPSGTLSLTCAVSGDSISSSNWWSWVRQPPGKGLEWIGEVSHSGNTDYNPSLKSRVTISVDKSKNQFSLKLSSVTAADTAVYYCARPSPCSGGSCYWFFDLWGRGTLVTVSS
VL: DIRLTQSPSSLSASVGDRVTITCRASQTINAYLNWYQQRPGKAPNLLIYAASSLQSGVPSRFSGSGSGTDFTLTISSLQPEDFATYYCQQSYKTAYTFGQGTKVEIK
notes: IgG1
Regarding B12, the “Neutralization IC50 (RSV subtype A)” value in experiment [1] was over 25 µg/mL. The equilibrium dissociation constant (Kd) was 2.98 nM in experiment [2] and 0.739 nM in experiment [3].

B13: ADI-41370 (antibody, V domains shown)
VH: EVQLVESGGGLVKPGGSLRLSCAASGFTFSGFSMNWVRQAPGKGLEWVSSISSTSRYIYYADSVQGRFTISRDNAKNSLYLQMNSLRAEDTAVYYCARDPGGSASFVPYYYGMDVWGQGATVTVSS
VL: SYELIQPPSVSVSPGQTARITCSGDALPNQYVYWYQKKPGQAPVLVIYKDTEGPLGIPERFSGSSSGTTVTLTISGVQAEDEADYYCQSADSSGTYPYVVFGGGTKLTVL
notes: IgG1; also called Ab 667
On to B13, for which the “Neutralization IC50 (RSV subtype A)” value in experiment [1] is over 25 µg/mL. Besides, the results for the Kd in experiment [2] and in experiment [3] were 5.59 nM and 1.64 nM, respectively.

B14: ADI-41360 (antibody, V domains shown)
VH: EVQLVESGGGLVQPGGSLRLSCAASGLTFSRYSMNWVRQAPGKGLEWVSYISSTGRRIQYADSVKGRFTISRDDGKNSLYLQMNSLRAEDTAVYYCARDPLNYHDNTAYWSYWGQGTLVTVSS
VL: NFMLTQPHSVSESPGKTVTISCTRSSGSIASNYVQWYQQRPGSAPTTVIYEDNQRPSGVPDRFSGSIDSSSNSASLTISGLKTEDEADYYCQSYDSSNPLVFGGGTKLTVL
notes: IgG1; also called Ab 657
B14: the “Neutralization IC50 (RSV subtype A)” value in experiment [1] was over 25 µg/mL. Besides, the figures for the Kd in experiment [2] and in experiment [3] were 2.46 nM and 0.358 nM, respectively.

B15: ADI-41366 (antibody, V domains shown)
VH: QVQLVQSGAEVKKPGESLKISCKASGYSSTTYWIGWVRQISGKGLEWMGIIYPGDSDTRYSPSFQGQVTISADRSTKTAYLQWSSLKASDTAMYYCGTSGFGVATPFDYWGQGTLVTVSS
VL: B14 VL with S25T, S31G, Q35H, S69R, D95A, S97G, N98I, P99H, L100G, L108V
notes: IgG1
As to B15, the “Neutralization IC50 (RSV subtype A)” value in experiment [1] was over 25 µg/mL. Besides, the values for the dissociation constant Kd in experiment [2] and in experiment [3] were 1.79 nM and 0.278 nM, respectively.

B16: ADI-41369 (antibody, V domains shown)
VH: EVQLVQSGGGVVQPGRSLRLSCAASGFTFSSYGMHWVRQAPGKGLEWVAVISHDGNNKYYGDSVKGRFTISRDNSKNTLHLQMNSLRGDDTAVYYCGKDPLKGDCSGGSCYQRIDYWGQGTLVTVSS
VL: B14 VL with R24G, S28R, T46A, E51D, S96R, P99H, L100V, V101I
notes: IgG1; also called Ab 666
Turning to B16, the “Neutralization IC50 (RSV subtype A)” value in experiment [1] is over 25 µg/mL. In addition, the Kd is 0.685 nM in experiment [2] and 0.308 nM in experiment [3].

B17: ADI-41354 (antibody, V domains shown)
VH: EVQLLESGGGLVQPGGSLRLSCAASGFTFSSYAMSWVRQAPGKGLEWVSGISGSGGTTYYADSVKGRFTISRDNSKNTLYLQMNSLRAEDTAVYYCAKDSPVNINCGGDCDVAYWGQGTLVTVSS
VL: EIVMTQSPSSLSASVGDTVTITCQASQDISYSLNWYQQKPGKAPNLLIFDASHLQTGVPSRFSGGGDGKHFSFTISSLQPEDVATYYCQQYDSLMYTFGQGTKVEIK
notes: IgG1; also called Ab 651
Consider B17, for which the “Neutralization IC50 (RSV subtype A)” value in experiment [1] is over 25 µg/mL. Besides, the figures for the Kd in experiment [2] and in experiment [3] were 0.771 nM and 0.429 nM, respectively.
